From article PMC7114241

Assays:
Test in all cases: FRET
Ac-NSTSQ-H = biological target: Ac-NSTSQ-H
Ac-NSFSQ-H = biological target: Ac-NSFSQ-H
Ac-ESTLQ-H = biological target: Ac-ESTLQ-H

B1: SARS-CoV main protease (Mpro), P0C6X7 (protein)
chain: SGFRKMAFPSGKVEGCMVQVTCGTTTLNGLWLDDTVYCPRHVICTAEDMLNPNYEDLLIRKSNHSFLVQAGNVQLRVIGHSMQNCLLRLKVDTSNPKTPKYKFVRIQPGQTFSVLACYNGSPSGVYQCAMRPNHTIKGSFLNGSCGSVGFNIDYDCVSFCYMHHMELPTGVHAGTDLEGKFYGPFVDRQTAQAAGTDTTITLNVLAWLYAAVINGDRWFLNRFTTTLNDFNLVAMKYNYEPLTQDHVDILGPLSAQTGIAVLDMCAALKELLQNGMNGRTILGSTILEDEFTPFDVVRQCSGVTFQ
B1 showed a Ki (Ac-NSTSQ-H) of 41 µM, a Ki (Ac-NSFSQ-H) of 72.7 µM and a Ki (Ac-ESTLQ-H) of 8.27 µM.
